Consider two molecules from patent publication US20050255553A1 (LUDWIG INSTITUTE FOR CANCER RESEARCH, published 2005).

Assay [1] deals with T1, HLA-B44 (HLA-B*4403) (human).
T1 construct: whole, on cells; MHC class I molecule on BAGM-EBV cells or transfected COS-7 cells
The assay is described as follows: concluded from lysis of peptide-pulsed BAGM-EBV cells and TNF assays with HLA-B44 transfectants; no direct binding assay.

Assay [2] addresses T1, HLA-B44 (HLA-B*4403). Kind of assay: lysis of peptide-pulsed BAGM-EBV cells by TIL 2.4. As to the method: FIG. 4 depicts the lysis of BAGM-EBV cells pulsed with the MAGE.C2.B44 peptides. […] TIL2.4 was added at a ratio of 15:1. The chromium release was measured after 4 hours. The nonapeptide (-▪-) is the antigenic sequence recognized by the TIL.
To identify the antigenic peptide, several minigenes were generated by amplifying different fragments of the MAGE-C2 cDNA by PCR. The PCR products were cloned into plasmid vector pCDNA3.1/His by TOPO T/A cloning (MAGE-C2/HLA-A2 patent and Ma W et al., Int. J. Cancer: in press, incorporated herein by reference). COS-7 cells were transfected with vectors encoding HLA-B44 and vectors encoding the different minigenes described above. TIL 2.4 were added to the transfected cells and TNF production was measured (FIG. 3X). […] Candidate peptides bearing the binding motif for HLA-B44 were then synthesized and pulsed onto BAGM-EBV cells. These pulsed cells were combined with TIL2.4 and assayed for lysis. […] The nonapeptide and the decapeptide were then synthesized and assayed individually.

B1: MAGE-C2 nonapeptide SESIKKKVL (SEQ ID NO: 107) (peptide)
peptide: SESIKKKVL
notes: Synthetic peptide; also called MAGE.C2 antigenic peptide
Regarding B1, the binding result with HLA-B44 (HLA-B*4403) [1] is given as “binds”.

SESIKKKVLEF (Synthetic peptide) [MAGE-C2 11-mer peptide SESIKKKVLEF (SEQ ID NO: 106)]: in the assay with HLA-B44 (HLA-B*4403) [2], the binding result is “binds”.
